Experimental findings from paper PMC8897509 (Nature Communications, 2022) are described below.

For test [1], the target named is T1, ubiquitin (UniProt P0CG48 1-76).
T1 construct: ubiquitin, the mature protein; cloned into pET-3a, expressed untagged; Some pull-downs used a Cy3-labelled variant with an added N-terminal Met-Cys; also called Ub^R; Ub^D; source: E. coli BL21 (DE3), purified (HiTrap SP HP, Superdex 75)
As to the kind of experiment: crystal structure; UbArk2C fusion alone, 2.5 Å, PDB 7R70; crystals from 1.6 M Na3Citrate, 16 °C; two copies in the asymmetric unit. As to conditions: both partners purified.

The target in test [2] is T1, ubiquitin. As to the kind of experiment: pull-down; GST-Ark2C proteins immobilised on Glutathione Sepharose mixed with ubiquitin; PBS pH 7.4, 0.2% Tween 20, 2 mM DTT, 4 °C, 30 min; washed four times with PBS. The conditions noted are these: both partners purified.

B1: Ark2C RING domain (residues 255-346), as it stands in the UbArk2C fusion (domain or fragment, human, UniProt Q6ZSG1 255-346, looked up)
chain: GAVQNTIERFTFPHKYKKRRPQDGKGKKDEGEESDTDEKCTICLSMLEDGEDVRRLPCMHLFHQLCVDQWLAMSKKCPICRVDIETQLGADS
notes: Ark2C (RNF165), human, RING domain, residues 255-346; Used for the pair rows of the Ark2C part of the fusion m2 (structures and cross-links); also called RNF165; source: E. coli BL21 (DE3), purified, as part of the UbArk2C fusion
As to B1, in test [1], the binding result is “binds”.

B2: GST-Ark2C^KK/AA (Lys271 and Lys272 to alanine) (domain or fragment, human, UniProt Q6ZSG1 255-346, looked up)
chain: GAVQNTIERFTFPHKYAARRPQDGKGKKDEGEESDTDEKCTICLSMLEDGEDVRRLPCMHLFHQLCVDQWLAMSKKCPICRVDIETQLGADS
notes: Ark2C (RNF165), human, RING domain, residues 255-346; The functional row uses this molecule, although the activity assays were done with the protein after cleavage of GST; source: E. coli BL21 (DE3), immobilised on Glutathione Sepharose resin; not shown: GST, N-terminal, kept
For the molecule B2, the binding result in test [2] is reported as “binds”.

B3: GST-Ark2C-ΔAcidic (Δ283-291) (domain or fragment, human, UniProt Q6ZSG1 255-346, looked up)
chain: GAVQNTIERFTFPHKYKKRRPQDGKGKKEKCTICLSMLEDGEDVRRLPCMHLFHQLCVDQWLAMSKKCPICRVDIETQLGADS
notes: Ark2C (RNF165), human, RING domain, residues 255-346, without most of the acidic residues of the β3-RING loop; source: E. coli BL21 (DE3), immobilised on Glutathione Sepharose resin; not shown: GST, N-terminal, kept
For the molecule B3, the binding result in test [2] is “binds”.
